Molecular target: T1, NPAS4 170X-Myc/FLAG (c.508C>T nonsense variant) (human, UniProt Q8IUM7-1 1-169)
T1 sequence (looked up): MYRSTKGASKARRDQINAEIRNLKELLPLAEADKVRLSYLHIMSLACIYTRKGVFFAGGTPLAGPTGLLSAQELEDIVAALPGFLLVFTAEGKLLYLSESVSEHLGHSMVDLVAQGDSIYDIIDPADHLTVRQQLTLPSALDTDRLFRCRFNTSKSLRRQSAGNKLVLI
Test: cell-based or functional assay

B1: ARNT2-Strep (natural protein)
chain: not shown
  6xCME firefly luciferase reporter gene activity in HEK293T (dual luciferase; ARNT2-FLAG as partner; printed for ARNT and ARNT2 alike): > 200 fold decrease relative to wildtype

— article PMC7987981, “Molecular characterisation of rare loss-of-function NPAS3 and NPAS4 variants identified in individuals with neurodevelopmental disorders” (Scientific Reports, 2021)
